# Paper PMC10346447
# Target: AvrLm10B_like2‐RFP (Leptosphaeria maculans 'brassicae')
# Experiment: FRET or BRET
substance,measurement,value
AvrLm10A_like2‐GFP (natural protein),FRET efficiency E,32.1%
same,donor (GFP) mean fluorescence lifetime τ with the acceptor,1.89 ns
